Our source for the Kd values is PMC5027616, “IL-13Rα2 uses TMEM219 in chitinase 3-like-1-induced signalling and effector responses” (Nature Communications, 2016).

This experiment has as its target T1, IL-13Rα2-Chi3l1 complexes (labelled) (UniProt Q14627 27-343; P36222 22-383, BODPY-TRM-X-succinimidyl ester label).
T1 construct: IL-13 receptor alpha 2, ectodomain; as m13; chitinase 3-like-1; as m12; The legend calls the complexes labelled; also called IL-13Rα2 complexed with Chi3l1; source: both proteins from the baculovirus-insect cell expression system, purified; complex formed before the titration
Kind of experiment: fluorescence polarisation; fluorescence anisotropy; serial dilutions of TMEM219 in 13 nm nanodisc (10 nM-10 μM) added to 10 nM labelled protein or complex; PBS for labelling; empty nanodisc as control. To be noted: both partners purified.

T1 sequence (Q14627 27-343, chain 1 of 2): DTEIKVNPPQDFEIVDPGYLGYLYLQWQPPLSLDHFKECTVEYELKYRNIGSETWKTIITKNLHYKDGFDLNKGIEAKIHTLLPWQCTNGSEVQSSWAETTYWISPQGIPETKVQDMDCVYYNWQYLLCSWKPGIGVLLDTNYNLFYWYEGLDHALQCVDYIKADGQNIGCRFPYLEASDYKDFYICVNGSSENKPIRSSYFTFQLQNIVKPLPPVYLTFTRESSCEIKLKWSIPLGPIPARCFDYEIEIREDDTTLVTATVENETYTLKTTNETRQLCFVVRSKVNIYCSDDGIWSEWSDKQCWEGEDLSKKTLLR
T1 sequence (P36222 22-383, chain 2 of 2): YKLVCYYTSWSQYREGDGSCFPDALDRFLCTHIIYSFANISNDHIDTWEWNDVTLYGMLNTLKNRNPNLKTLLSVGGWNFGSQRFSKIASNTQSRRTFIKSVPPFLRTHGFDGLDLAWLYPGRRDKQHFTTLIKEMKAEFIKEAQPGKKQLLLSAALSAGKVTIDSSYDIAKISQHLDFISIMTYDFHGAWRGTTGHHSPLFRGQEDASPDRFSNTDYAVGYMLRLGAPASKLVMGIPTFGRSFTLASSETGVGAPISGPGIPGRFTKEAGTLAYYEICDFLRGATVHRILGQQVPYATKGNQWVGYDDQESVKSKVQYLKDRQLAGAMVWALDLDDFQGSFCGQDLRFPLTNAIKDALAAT

B1: His-tagged human TMEM219 (natural protein, UniProt Q86XT9 39-240, looked up)
chain: SFLLTHRTGLRSPDIPQDWVSFLRSFGQLTLCPRNGTVTGKWRGSHVVGLLTTLNFGDGPDRNKTRTFQATVLGSQMGLKGSSAGQLVLITARVTTERTAGTCLYFSAVPGILPSSQPPISCSEEGAGNATLSPRMGEECVSVWSHEGLVLTKLLTSEELALCGSRLLVLGSFLLLFCGLLCCVTAMCFHPRRESHWSRTRL
notes: also called recombinant human (rh) TMEM219; rTMEM219; source: HEK293T cells (pcDNA3.1), purified (Nickel beads)
By Kd is commonly meant a measure of binding affinity in units of concentration. Lower therefore signals a tighter complex. For B1, the equilibrium dissociation constant (Kd) is roughly 0.288 µM.
